Measured values reported in the supplement of paper PMC10567573.
± gives the standard deviation.

Assay: protein stability index of a GFP-peptide fusion (GPS, HEK-293T) (PSI 1-6); higher = more stable
Settings: c terminus: a fixed tail appended
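Further: 24-mer peptide tiles fused after GFP, lentivirally expressed, FACS-sorted into six equal bins by GFP/DsRed ratio, decoded by Illumina sequencing, PSI is the read-weighted mean bin number.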

Sequence | protein stability index (treatment: DMSO) | protein stability index (treatment: MLN4924 1 uM, 8 h)
LTFGPDSRHCPQLPPPCAALWCSG [ADAMTS4] | 2.29 ± 0.36 | 2.46 ± 0.32
LTTEKQNFLLFDMTTHPLTNNNIK [GOLPH3] | 2.98 ± 0.18 | 3.09 ± 0.17
LVCHVMMGNLVMFRKDSVLNILIQ [INTS3] | 3.25 ± 0.47 | 3.33 ± 0.51
LVDFCNKPILLHQVEALAAAGVDH [GMPPB] | 2.65 ± 0.31 | 2.95 ± 0.35
LVLKIMSGTFAPISDRYSPELRQL [NEK8] | 2.9 ± 0.6 | 2.69 ± 0.5
LVMPLEEKLTKITRTGPSAWETKK [PCMTD2] | 3.79 ± 0.21 | 3.75 ± 0.23
LVRETDELRRNHCFQDFKEEKPQE [ELOA2] | 4.28 ± 0.24 | 4.41 ± 0.28
LWDTSGQGRFCTIFRSYSRGAQGI [RAB40C] | 2.39 ± 0.41 | 2.31 ± 0.37
LWELCHLWLRPEVHTKEQILELLV [ZNF396] | 2.22 ± 0.36 | 2.31 ± 0.072
LWLRPETHTKEQILELVVLEQFVA [ZNF24] | 2.26 ± 0.61 | 2.35 ± 0.45
LYFLFADAMQLNDKWQGLCWPMMD [CMTM3] | 3.07 ± 0.31 | 3.05 ± 0.47
LYHNVEGFTDRREARKYASNLLKA [DVL3] | 3.39 ± 0.071 | 3.49 ± 0.22
LYVSLHRYDHGTFFPMGDEGASSQ [HDAC6] | 2.17 ± 0.51 | 2.31 ± 0.28
MAAQRNRSKESKDCSGLVLLCLFF [PCDHGA10] | 2.29 ± 0.27 | 1.83 ± 0.32
MAGCRGSLCCCCRWCCCCGERETR [CLCN6] | 2.42 ± 0.28 | 2.98 ± 0.44
MASDHREALLDRESENASLREKLR [LRRC45] | 5.15 ± 0.093 | 4.95 ± 0.16
MDNNRNLDLDSIIDEVRTQYEEIA [KRT71] | 4.14 ± 0.26 | 4.13 ± 0.17
MEEMQNKAVVFFVFYLWSAIEIFR [HACD3] | 2.7 | 2.8 ± 0.63
MENKKKDKDKSDDRMARPSGRSGH [CSNK1G3] | 5.42 ± 0.34 | 5.31 ± 0.44
MGGTTSTRRVTFEADENENITVVK [CHCHD3] | 4.95 ± 0.27 | 5.11 ± 0.21
MIEDNKENKDHSLERGRASLIFSL [TPH1] | 3.25 ± 0.36 | 3.36 ± 0.18
MIHRTRKQKYFYKGGLVWDENSSD [CLK3] | 3.06 ± 0.22 | 3.06 ± 0.23

Sequence | protein stability index (treatment: DMSO) | protein stability index (treatment: MLN4924 1 uM, 8 h)
MKEFSNQVVGQVNVEMDATPGIDL [KRT13] | 4.58 ± 0.16 | 4.44 ± 0.27
MKEQDLMCIKLHGVSKVGLRKIID [KLHL13] | 2.18 ± 0.53 | 2.15 ± 0.44
MKGFSFKEDTLLLIAEVMGEDIPE [C8orf76] | 2.09 ± 0.11 | 2.21 ± 0.24
MKIKQDRASRTYELQNQLAACTRA [FSD1] | 3.52 ± 0.12 | 3.62 ± 0.38
MKRHSSRDAAGKPQRPRSAPRTSS [FCHO1] | 4.82 ± 0.28 | 4.92 ± 0.34
MNEHPVCSRTWTNRLCHQEMGSKK [SPAG8] | 3.94 ± 0.28 | 4.09 ± 0.12
MPPLLPLRLCRLWPRNPPSRLLGA [DNAJC4] | 2.29 ± 0.37 | 2.15 ± 0.11
MPSSTTQKDSYQPPGNVYWPLRGK [SPAG8] | 4.21 ± 0.28 | 4.22 ± 0.28
MQQSNLDPLSPMTASSLLSFAELF [FEM1C] | 2.83 ± 0.29 | 2.52 ± 0.42
MRGFKGDRGPKGEKGEKGDRAGDA [SCARA5] | 5.41 ± 0.25 | 5.44 ± 0.44
MRHLSTGTMTGLAIQYALNIAFSE [MATN2] | 3.08 ± 0.49 | 3.33 ± 0.25
MRYEEEGMSYLYASWMYQLQHGDQ [TEX19] | 2.3 ± 0.29 | 2.13 ± 0.17
MSLFSLYMVQDQHECILPFVQVKG [M1AP] | 2.43 ± 0.54 | 2.14 ± 0.56
MSYHSGSVFSARDRDPNSLLISCA [TNXB] | 2.51 ± 0.2 | 2.44 ± 0.15
MTETDAFYKREMFDPAEKYKMDHR [CASP6] | 4.05 ± 0.25 | 4.1 ± 0.29
MTGRAMDPLPAAAVGAAAEAEADE [SNX8] | 5.52 ± 0.3 | 5.78 ± 0.12
MTTCSRQFTSSSSMKGSCGIGGGI [KRT16] | 2.41 ± 0.5 | 2.33 ± 0.16
MWDTKTLGLRQHHCRKCGQAVCGK [WDFY1] | 3.21 ± 0.25 | 3.4 ± 0.27
MWYPEIKHFCPRAPVILVGCQLDL [RHOBTB2] | 3.24 ± 0.81 | 2.77 ± 0.28
NAQIPELKSDLEKASALNTKIRAL [CD207] | 4.016 ± 0.023 | 3.86 ± 0.48
NCMAEKRETVLIETQLKACASFIR [C8orf76] | 2.23 ± 0.32 | 2.25 ± 0.45
NCTLIISYQKPKEVVVAESELQKE [DPCD] | 2.18 ± 0.19 | 2.49 ± 0.2

Sequence | protein stability index (treatment: DMSO) | protein stability index (treatment: MLN4924 1 uM, 8 h)
NDDYYEESYFTTRTYGEPESAGPS [EMD] | 4.84 ± 0.17 | 4.72 ± 0.17
NDEIEEVRLQSIHTMRKISNNITL [INTS4] | 3.75 ± 0.23 | 3.69 ± 0.18
NEHKSCEEKSVKNTSIRVADFGSA [CLK3] | 4.89 ± 0.16 | 5.03 ± 0.14
NFIVNDSRKKPIWNVLMWTSLFLG [SOAT1] | 2.08 ± 0.14 | 2.2 ± 0.45
NFVHRFPFVAVSIGFAVNKKIEFG [IMPA1] | 2.91 ± 0.76 | 2.77 ± 0.61
NGERESGLRSLRLFQKLEENGDLY [WDR41] | 3.29 ± 0.12 | 3.52 ± 0.23
NGMNAVMMHGRSYSLASGAGGGGS [RAB40C] | 3.19 ± 0.26 | 3.34 ± 0.34
NGSLYGQASSERLGLDNRLFGHPG [ADAMTSL2] | 3.17 ± 0.53 | 3.46 ± 0.25
NGSMAMGTVPGQAPRLAVAVPAVT [LYSMD4] | 3.77 ± 0.43 | 4 ± 0.23
NGVRVFPPAMPPPATHLSPALAPV [TRIM9] | 3.22 ± 0.28 | 3.34 ± 0.14
NIDIQNGFLLRYAVIKSNHSYCRM [ASB7] | 2.57 ± 0.38 | 2.54 ± 0.36
NILEKEVLPPIHAYGNRTECRNPQ [FEM1B] | 4.03 ± 0.079 | 4.18 ± 0.11
NIPGDVLRAVEQAMGHSQDRLTTF [LRRC45] | 3.09 ± 0.14 | 3.19 ± 0.078
NKPMLADVVFEIQGTTVPAHRAIL [RHOBTB3] | 2.3 ± 0.27 | 2.29 ± 0.2
NLGRMIDWVPVESLLRPLNSLAAL [ZER1] | 1.72 ± 0.18 | 2.28 ± 0.66
NLKFITDPFVCRLRHLSPTPSEEH [OR4A15] | 2.54 ± 0.11 | 3 ± 0.2
NLLDVYSSQGVATPAITVSNSCPA [TFE3] | 3.4 ± 0.15 | 3.34 ± 0.22
NLRVLVDCILRDTSEDLRLQCDAV [TEKT4] | 2.64 ± 0.57 | 2.46 ± 0.29
NMPKDHPVSCCLGLLLESLVPFIV [DYNC2LI1] | 2.53 ± 0.23 | 2.57 ± 0.5
NNCAFLESSAKSKINVNEIFYDLV [RAP1B] | 2.44 ± 0.45 | 2.07 ± 0.34
NRDSYFYAAIVAVVAVHVVLALFV [VMA21] | 2.3 ± 0.16 | 2 ± 0.2
